# Measured values taken from IntAct's records for PubMed 19704022.
# Key:
# cof1_rat Cfl1 [1] = target: cof1_rat Cfl1 (UniProt P45592)
# cofa_dicdi cofA = cofa_dicdi cofA (UniProt P0DJ26)
# cof1_rat Cfl1 [2] = target: cof1_rat Cfl1 (UniProt P45592); remark: listed apart in the source
# Chain of cof1_rat Cfl1 (P45592 whole entry): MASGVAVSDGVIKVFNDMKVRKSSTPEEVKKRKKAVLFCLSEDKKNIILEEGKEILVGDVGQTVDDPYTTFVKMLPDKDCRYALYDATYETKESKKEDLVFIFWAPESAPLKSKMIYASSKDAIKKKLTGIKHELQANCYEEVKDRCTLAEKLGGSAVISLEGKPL
# Chain of Src substrate cortactin (Mus musculus), Q60598 Y421F;Y466F;Y482F (Q60598 whole entry Y421F/Y466F/Y482F): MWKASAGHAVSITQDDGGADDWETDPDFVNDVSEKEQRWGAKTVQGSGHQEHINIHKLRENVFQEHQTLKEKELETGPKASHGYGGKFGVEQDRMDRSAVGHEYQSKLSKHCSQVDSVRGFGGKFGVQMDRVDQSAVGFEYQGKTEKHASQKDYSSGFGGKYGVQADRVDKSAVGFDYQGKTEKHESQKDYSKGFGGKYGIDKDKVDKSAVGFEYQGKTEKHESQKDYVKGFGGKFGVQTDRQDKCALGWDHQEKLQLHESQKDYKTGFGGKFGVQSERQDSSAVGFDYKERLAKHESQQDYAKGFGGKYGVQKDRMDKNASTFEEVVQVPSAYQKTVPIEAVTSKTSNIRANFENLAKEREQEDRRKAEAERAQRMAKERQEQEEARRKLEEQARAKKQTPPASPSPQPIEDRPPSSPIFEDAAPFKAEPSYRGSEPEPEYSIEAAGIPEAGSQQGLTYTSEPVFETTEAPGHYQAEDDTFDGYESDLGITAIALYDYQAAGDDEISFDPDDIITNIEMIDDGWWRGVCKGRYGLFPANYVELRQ
# Chain of Src substrate cortactin (Mus musculus), Q60598 Y421E;Y466E;Y482E (Q60598 whole entry Y421E/Y466E/Y482E): as the sequence (Q60598 whole entry Y421F/Y466F/Y482F) above, with F421E, F466E, F482E counted along it
# Chain of cofa_dicdi cofA (P0DJ26 whole entry): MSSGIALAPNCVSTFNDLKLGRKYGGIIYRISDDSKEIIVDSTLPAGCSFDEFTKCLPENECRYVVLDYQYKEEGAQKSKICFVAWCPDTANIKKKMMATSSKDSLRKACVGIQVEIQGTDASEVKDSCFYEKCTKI
effect of a mutation on the interaction (cof1_rat Cfl1 [1]),effect of a mutation on the interaction (cofa_dicdi cofA),effect of a mutation on the interaction (cof1_rat Cfl1 [2]),Substance
decreasing interaction,,,"Src substrate cortactin (Mus musculus), Q60598 Y421E;Y466E;Y482E"
,increasing interaction,increasing interaction,"Src substrate cortactin (Mus musculus), Q60598 Y421F;Y466F;Y482F"
